B1: Prickle-like protein 1 (Homo sapiens), Q96MT3 (parent)
chain: MPLEMEPKMSKLAFGCQRSSTSDDDSGCALEEYAWVPPGLRPEQIQLYFACLPEEKVPYVNSPGEKHRIKQLLYQLPPHDNEVRYCQSLSEEEKKELQVFSAQRKKEALGRGTIKLLSRAVMHAVCEQCGLKINGGEVAVFASRAGPGVCWHPSCFVCFTCNELLVDLIYFYQDGKIHCGRHHAELLKPRCSACDEIIFADECTEAEGRHWHMKHFCCLECETVLGGQRYIMKDGRPFCCGCFESLYAEYCETCGEHIGVDHAQMTYDGQHWHATEACFSCAQCKASLLGCPFLPKQGQIYCSKTCSLGEDVHASDSSDSAFQSARSRDSRRSVRMGKSSRSADQCRQSLLLSPALNYKFPGLSGNADDTLSRKLDDLSLSRQGTSFASEEFWKGRVEQETPEDPEEWADHEDYMTQLLLKFGDKSLFQPQPNEMDIRASEHWISDNMVKSKTELKQNNQSLASKKYQSDMYWAQSQDGLGDSAYGSHPGPASSRRLQELELDHGASGYNHDETQWYEDSLECLSDLKPEQSVRDSMDSLALSNITGASVDGENKPRPSLYSLQNFEEMETEDCEKMSNMGTLNSSMLHRSAESLKSLSSELCPEKILPEEKPVHLPVLRRSKSQSRPQQVKFSDDVIDNGNYDIEIRQPPMSERTRRRVYNFEERGSRSHHHRRRRSRKSRSDNALNLVTERKYSPKDRLRLYTPDNYEKFIQNKSAREIQAYIQNADLYGQYAHATSDYGLQNPGMNRFLGLYGEDDDSWCSSSSSSSDSEEEGYFLGQPIPQPRPQRFAYYTDDLSSPPSALPTPQFGQRTTKSKKKKGHKGKNCIIS
partner: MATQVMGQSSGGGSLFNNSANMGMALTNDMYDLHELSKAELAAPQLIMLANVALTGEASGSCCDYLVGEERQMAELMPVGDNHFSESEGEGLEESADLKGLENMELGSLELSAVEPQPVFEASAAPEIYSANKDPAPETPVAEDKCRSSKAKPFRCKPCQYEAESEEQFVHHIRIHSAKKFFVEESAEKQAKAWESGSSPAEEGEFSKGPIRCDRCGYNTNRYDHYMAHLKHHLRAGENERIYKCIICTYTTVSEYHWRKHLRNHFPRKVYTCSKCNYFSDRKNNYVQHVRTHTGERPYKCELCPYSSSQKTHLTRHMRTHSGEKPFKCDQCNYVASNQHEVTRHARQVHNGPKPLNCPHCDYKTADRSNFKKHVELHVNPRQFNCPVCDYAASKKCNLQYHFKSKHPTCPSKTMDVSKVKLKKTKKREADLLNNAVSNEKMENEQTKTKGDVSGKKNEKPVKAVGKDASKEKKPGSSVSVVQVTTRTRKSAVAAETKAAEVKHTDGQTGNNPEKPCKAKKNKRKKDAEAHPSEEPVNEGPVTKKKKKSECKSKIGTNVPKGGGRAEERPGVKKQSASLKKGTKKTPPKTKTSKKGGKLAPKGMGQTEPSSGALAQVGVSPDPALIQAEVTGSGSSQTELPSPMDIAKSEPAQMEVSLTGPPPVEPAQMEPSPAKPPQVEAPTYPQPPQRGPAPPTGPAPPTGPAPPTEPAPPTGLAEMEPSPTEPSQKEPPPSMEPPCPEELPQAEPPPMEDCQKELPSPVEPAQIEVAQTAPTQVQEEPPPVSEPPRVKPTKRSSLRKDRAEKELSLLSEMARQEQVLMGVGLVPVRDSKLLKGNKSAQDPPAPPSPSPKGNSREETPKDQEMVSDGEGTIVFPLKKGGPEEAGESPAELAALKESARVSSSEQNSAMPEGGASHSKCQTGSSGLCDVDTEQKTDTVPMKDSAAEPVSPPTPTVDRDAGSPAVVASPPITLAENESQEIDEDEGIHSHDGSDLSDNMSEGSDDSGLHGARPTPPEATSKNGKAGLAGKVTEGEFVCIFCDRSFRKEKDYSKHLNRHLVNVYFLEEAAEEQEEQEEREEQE

The variants in this experiment derive from B1. The note with it: with rest_mouse Rest.
For R104Q, the “effect of a mutation on the interaction” value is “decreasing interaction”.

The values above are taken from IntAct's records for PubMed 18976727.
